Reference: article PMC9372576, “Interaction of the gas vesicle proteins GvpA, GvpC, GvpN, and GvpO of Halobacterium salinarum” (Frontiers in Microbiology, 2022)

T1: GvpA fragment A1-34 (Halobacterium salinarum, UniProt P08958 1-34)
T1 construct: GvpA of Halobacterium salinarum, alpha1 plus beta-sheet 1; vector described in earlier work; source: Hfx. volcanii WR340 transformant, split-GFP fusion in living cells
T1 chain (looked up): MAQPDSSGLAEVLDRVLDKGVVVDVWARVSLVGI

T2: GvpA fragment A20-47 (Halobacterium salinarum, UniProt P08958 20-47)
T2 construct: GvpA of Halobacterium salinarum, the two beta-sheets beta1-beta2; vector described in earlier work; source: Hfx. volcanii WR340 transformant, split-GFP fusion in living cells
T2 chain (looked up): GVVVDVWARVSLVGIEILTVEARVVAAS

T3: GvpA fragment A44-76 (Halobacterium salinarum, UniProt P08958 44-76)
T3 construct: GvpA of Halobacterium salinarum, mainly helix alpha3; vector described in earlier work; source: Hfx. volcanii WR340 transformant, split-GFP fusion in living cells
T3 chain (looked up): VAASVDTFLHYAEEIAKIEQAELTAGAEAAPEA

T4: GvpA fragment A1-43 (Halobacterium salinarum, UniProt P08958 1-43)
T4 construct: GvpA of Halobacterium salinarum, alpha1-beta1-beta2; vector described in earlier work; source: Hfx. volcanii WR340 transformant, split-GFP fusion in living cells
T4 chain (looked up): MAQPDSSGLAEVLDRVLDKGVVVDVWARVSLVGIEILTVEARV

T5: GvpA fused to NGFP or CGFP (Halobacterium salinarum, UniProt P08958 1-76)
T5 construct: the entire GvpA of the p-vac region of Halobacterium salinarum; gvpA reading frame; NGFP (mGFP2 up to aa 157) or CGFP (from aa 158) at the N- or C-terminus through a 14 aa (pJAS) or 16 aa (pWLfdx) linker; with GvpF and its variants CGFP stood at the C-terminus of GvpA (AC); also called NA; AN; source: Hfx. volcanii WR340 transformant, split-GFP fusion in living cells
T5 sequence (looked up): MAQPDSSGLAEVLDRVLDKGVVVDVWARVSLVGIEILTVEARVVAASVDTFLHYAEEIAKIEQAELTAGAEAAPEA

T6: GvpC C-terminal fragment Cterm (Halobacterium salinarum, UniProt P24574 329-382)
T6 construct: GvpC of Halobacterium salinarum, aa 329-382, the globular C-terminal domain with a zinc-finger motif; GFP fragment at the N- or C-terminus; source: Hfx. volcanii WR340 transformant, split-GFP fusion in living cells
T6 sequence (looked up): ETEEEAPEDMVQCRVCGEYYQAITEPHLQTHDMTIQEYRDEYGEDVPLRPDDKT

T7: GvpC fused to NGFP or CGFP (Halobacterium salinarum, UniProt P24574 1-382)
T7 construct: GvpC of the p-vac region of Halobacterium salinarum; gvpC amplified from the p-vac region; GFP fragment at the N- or C-terminus, 14 or 16 aa linker; source: Hfx. volcanii WR340 transformant, split-GFP fusion in living cells
T7 sequence (looked up): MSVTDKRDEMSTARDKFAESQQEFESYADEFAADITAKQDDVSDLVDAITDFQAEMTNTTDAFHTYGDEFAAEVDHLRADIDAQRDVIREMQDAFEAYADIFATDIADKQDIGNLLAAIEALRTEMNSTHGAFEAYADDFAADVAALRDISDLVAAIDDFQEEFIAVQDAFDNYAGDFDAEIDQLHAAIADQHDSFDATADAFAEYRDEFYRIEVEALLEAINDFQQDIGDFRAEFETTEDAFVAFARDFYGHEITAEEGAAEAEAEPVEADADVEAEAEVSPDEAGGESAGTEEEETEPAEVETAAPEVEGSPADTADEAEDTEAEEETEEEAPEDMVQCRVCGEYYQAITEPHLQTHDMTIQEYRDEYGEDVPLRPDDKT

T8: GvpN fused to NGFP or CGFP (Halobacterium salinarum, UniProt Q9HI16 1-347)
T8 construct: GvpN of the p-vac region of Halobacterium salinarum; gvpN amplified from the p-vac region; GFP fragment at the N- or C-terminus, 14 or 16 aa linker; source: Hfx. volcanii WR340 transformant, split-GFP fusion in living cells
T8 sequence (looked up): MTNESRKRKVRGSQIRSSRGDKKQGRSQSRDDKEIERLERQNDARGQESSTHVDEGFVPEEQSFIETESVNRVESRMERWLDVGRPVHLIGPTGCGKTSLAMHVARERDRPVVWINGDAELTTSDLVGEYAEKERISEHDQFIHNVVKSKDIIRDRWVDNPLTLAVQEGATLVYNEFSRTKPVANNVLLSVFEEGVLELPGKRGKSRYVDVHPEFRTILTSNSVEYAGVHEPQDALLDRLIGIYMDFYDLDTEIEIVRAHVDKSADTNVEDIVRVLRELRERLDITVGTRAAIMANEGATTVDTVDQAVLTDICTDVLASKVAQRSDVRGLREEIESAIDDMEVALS

B1: GvpA fragment A1-22 (domain or fragment, Halobacterium salinarum, UniProt P08958 1-22, looked up)
chain: MAQPDSSGLAEVLDRVLDKGVV
notes: GvpA of Halobacterium salinarum, the first 22 aa including alpha-helix 1; vector described in Winter et al., 2018 and Voelkner et al., 2020; source: Hfx. volcanii WR340 transformant, split-GFP fusion in living cells

Key:
Test in all cases: split reporter (BiFC, NanoBiT); split-GFP (NGFP and CGFP of salt-stable mGFP2) in Hfx. volcanii transformants, 24 h 37 °C then 24 h 30 °C; relative fluorescence (rf) against the wild type; the highest of eight tag combinations is given
[1] = molecular target: T1, GvpA fragment A1-34; details: partners not purified
[2] = molecular target: T2, GvpA fragment A20-47; details: partners not purified
[3] = molecular target: T3, GvpA fragment A44-76; details: partners not purified
[4] = molecular target: T4, GvpA fragment A1-43; details: partners not purified
[5] = molecular target: B1; details: partners not purified
[6] = molecular target: T5, GvpA fused to NGFP or CGFP; details: partners not purified
[7] = molecular target: T6, GvpC C-terminal fragment Cterm; details: partners not purified
[8] = molecular target: T7, GvpC fused to NGFP or CGFP; details: partners not purified
[9] = molecular target: T8, GvpN fused to NGFP or CGFP; details: partners not purified
[10] = molecular target: the molecule itself

Row | relative fluorescence (rf) [1] [LAU/mm^2] | relative fluorescence (rf) [2] [LAU/mm^2] | relative fluorescence (rf) [3] [LAU/mm^2] | relative fluorescence (rf) [4] [LAU/mm^2] | relative fluorescence (rf) [5] [LAU/mm^2] | relative fluorescence (rf) [6] [LAU/mm^2] | relative fluorescence (rf) [7] [LAU/mm^2] | relative fluorescence (rf) [8] [LAU/mm^2] | relative fluorescence (rf) [9] [LAU/mm^2] | Binder | relative fluorescence (rf) [10] [LAU/mm^2]
1 | ≤ 0.48 | ≤ 0.48 | ≤ 0.48 | ≤ 0.48 |  |  |  |  |  | B1 | 
2 |  |  |  |  | 3.57 | < 2.5 | 10.1 |  |  | GvpC N-terminal fragment Nterm (domain or fragment, Halobacterium salinarum, UniProt P24574 10-130, looked up, GvpC of Halobacterium salinarum, amino acids 10-130, the first three alpha-helical repeats; GFP fragment at the N- or C-terminus; source: Hfx. volcanii WR340 transformant, split-GFP fusion in living cells) MSTARDKFAESQQEFESYADEFAADITAKQDDVSDLVDAITDFQAEMTNTTDAFHTYGDEFAAEVDHLRADIDAQRDVIREMQDAFEAYADIFATDIADKQDIGNLLAAIEALRTEMNSTH | 
3 |  |  |  |  | 3 |  |  | < 5 | 12.5 | GvpO fused to NGFP or CGFP (natural protein, Halobacterium salinarum, UniProt O51968 1-119, looked up, GvpO of the p-vac region of Halobacterium salinarum; gvpO amplified from the p-vac region; GFP fragment at the N- or C-terminus, 14 or 16 aa linker; source: Hfx. volcanii WR340 transformant, split-GFP fusion in living cells) MADPANDRSEREEGGEDDETPPASDGNPSPSANSFTLSNAQTRAREAAQDLLEHQFEGMIKAESNDEGWRTVVEVVERNAVPDTQDIIGRYEITLDGTGDVTGYELLERYRRGDMKEEL | > 10
